Measurements taken from patent publication US20240350586A1 (TSINGHUA UNIVERSITY, published 2024).

B1: HA-CCT2 (chaperonin subunit CCT2, wild type, N-terminal HA tag) (other)
chain: ASLSLAPVNIFKAGADEERAETARLTSFIGAIAIGDLVKSTLGPKGMDKILLSSGRDASLMVTNDGATILKNIGVDNPAAKVLVDMSRVQDDEVGDGTTSVTVLAAELLREAESLIAKKIHPQTIIAGWREATKAAREALLSSAVDHGSDEVKFRQDLMNIAGTTLSSKLLTHHKDHFTKLAVEAVLRLKGSGNLEAIHIIKKLGGSLADSYLDEGFLLDKKIGVNQPKRIENAKILIANTGMDTDKIKIFGSRVRVDSTAKVAEIEHAEKEKMKEKVERILKHGINCFINRQLIYNYPEQLFGAAGVMAIEHADFAGVERLALVTGGEIASTFDHPELVKLGSCKLIEEVMIGEDKLIHFSGVALGEACTIVLRGATQQILDEAERSLHDALCVLAQTVKDSRTVYGGGCSEMLMAHAVTQLANRTPGKEAVAMESYAKALRMLPTIIADNAGYDSADLVAQLRAAHSEGNTTAGLDMREGTIGDMAILGITESFQVKRQVLLSAAEAAEVILRVDNIIKAAPRKRVPDHHPC
notes: Expressed in HEK293T or U2OS from pFUGW-HA-CCT2; CCT genes were amplified from HEK293T cDNA; also called WT CCT2; HA-CCT2 WT; not shown: N-terminal HA tag

Experiments:
T7-LC3B = T7-LC3B (UniProt Q9GZQ8 1-120); assay: co-IP of HA-CCT2 with T7-ATG8s in HEK293T
Source text: The cells were permeabilized with digitonin before fixation. [0136] (G) Quantification of LC3 around Q103-HTT IB (mean±SEM) as shown in (F). […] [0137] […] The cells were permeabilized with digitonin before immunoblot analysis. LE, long exposure; SE, short exposure. [0138] (I) Quantification of normalized Q103-HTT (mean±SEM) in (H). […] [0139] […] The VLIR motif VIL is highlighted in red. [0140] […] The data are representative of three independent experiments. [0141] […] The cells were permeabilized with digitonin before fixation. [0142] (M) Quantification of LC3 around IBs (mean±SEM) as shown in (L). […] [0143] […] [0144] (O) Quantification of normalized Q103-HTT (mean±SEM) in (N).
Co-immunoprecipitation was performed essentially as described before. In brief, 24 h after transfection, the cells were collected and lysed on ice for 30 min in co-IP buffer (50 mM Tris/HCl pH 7.4, 150 mM NaCl, 1 mM EDTA, 0.5% NP40) with protease inhibitor mixture, and the lysates were cleared by centrifugation. The resulting supernatants were incubated with indicated agarose or magnetic beads and rotated at 4° C. for 3 h. The agarose was washed five times with co-IP buffer. As for the BFP-tagged Q103, the supernatants were incubated with rabbit anti-BFP antibodies and Protein A/G PLUS-Agarose according to the manufacturers' protocol. […]

[1] = biological target: T1, T7-LC3C (expressed in cells) (UniProt Q9BXW4 1-126); assay: co-IP with T7-LC3C in HEK293T
T1 construct: Expressed from pCDNA3-T7-LC3C; not shown: T7 tag
T1 sequence (Q9BXW4 1-126): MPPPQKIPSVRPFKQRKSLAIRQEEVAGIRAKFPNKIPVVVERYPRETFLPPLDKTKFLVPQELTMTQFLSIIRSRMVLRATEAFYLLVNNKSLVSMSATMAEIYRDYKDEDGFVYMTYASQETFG
Method: (§1) The data are representative of three independent experiments. [0146] […] The data are representative of three independent experiments. [0147] […] The data are representative of three independent experiments. [0148] […] The interaction of the peptides with T7-GABARAP or T7-GABARAPL1 proteins was analyzed by in vitro pull-down. The data are representative of three independent experiments. [0149] […] The data are representative of three independent experiments. [0150] […] [0151] (K) Quantification of Q103-HTT-GFP area/DAPI area (mean±SEM) as shown in [0152] (J). 48 h represents IB accumulation stage and 72 h represents clearance stage. P values are indicated (two-tailed t test, >20 views from three independent experiments). [0153] […] The data are representative of three independent experiments. [0154] […] The data are representative of three independent experiments. [0155] […] The data are representative of three independent experiments.
(§2) Co-immunoprecipitation was performed essentially as described before. In brief, 24 h after transfection, the cells were collected and lysed on ice for 30 min in co-IP buffer (50 mM Tris/HCl pH 7.4, 150 mM NaCl, 1 mM EDTA, 0.5% NP40) with protease inhibitor mixture, and the lysates were cleared by centrifugation. The resulting supernatants were incubated with indicated agarose or magnetic beads and rotated at 4° C. for 3 h. The agarose was washed five times with co-IP buffer.

[2] = biological target: B1; assay: co-IP of HA-CCT2 with T7-GABARAP in HEK293T
Method: as §1, §2

[3] = biological target: T2, His-mRuby2-CCT2 (purified) (human, UniProt P78371 2-535); assay: recruitment of 4 uM mRuby2-CCT2 to FUS P525L granules in vitro, imaging
T2 construct: 4 uM added to FUS P525L granules in vitro; also called CCT2 protein; not shown: His tag and mRuby2
T2 sequence: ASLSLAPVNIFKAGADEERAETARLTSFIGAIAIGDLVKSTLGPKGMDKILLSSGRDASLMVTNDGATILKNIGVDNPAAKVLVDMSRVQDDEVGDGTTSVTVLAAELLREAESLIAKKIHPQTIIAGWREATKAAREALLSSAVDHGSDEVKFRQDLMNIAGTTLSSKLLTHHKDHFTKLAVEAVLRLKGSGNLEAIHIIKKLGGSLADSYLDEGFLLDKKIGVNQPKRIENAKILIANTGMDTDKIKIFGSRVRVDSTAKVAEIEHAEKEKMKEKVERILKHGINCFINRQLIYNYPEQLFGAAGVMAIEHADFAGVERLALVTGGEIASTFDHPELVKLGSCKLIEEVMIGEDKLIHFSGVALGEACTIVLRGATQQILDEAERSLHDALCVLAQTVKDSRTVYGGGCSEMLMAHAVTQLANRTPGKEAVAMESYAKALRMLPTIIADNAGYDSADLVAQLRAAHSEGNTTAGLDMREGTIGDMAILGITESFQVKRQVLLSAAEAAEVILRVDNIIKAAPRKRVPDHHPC
Source text: [0179] […] [0180] […] [0181] […] [0182] […] [0184] […] [0185] […] [0186]

[4] = biological target: T3, His-T7-LC3C (purified protein) (UniProt Q9BXW4 1-147); assay: peptide pull-down, immunoblot
T3 construct: Purified on Ni sepharose; used in peptide and protein pull-downs; also called T7-LC3C protein; purified LC3C; not shown: His and T7 tags
T3 sequence (Q9BXW4 whole entry): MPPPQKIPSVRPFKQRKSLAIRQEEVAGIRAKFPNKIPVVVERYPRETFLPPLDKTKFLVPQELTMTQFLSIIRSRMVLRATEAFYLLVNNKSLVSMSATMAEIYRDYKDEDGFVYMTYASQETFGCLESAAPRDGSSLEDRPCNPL
Source text: The data are representative of three independent experiments. […] The cells were permeabilized with digitonin before fixation. [0136] (G) Quantification of LC3 around Q103-HTT IB (mean±SEM) as shown in (F). […] [0137] […] The cells were permeabilized with digitonin before immunoblot analysis. LE, long exposure; SE, short exposure. [0138] (I) Quantification of normalized Q103-HTT (mean±SEM) in (H). […] [0139] […] The VLIR motif VIL is highlighted in red. [0140] […] The data are representative of three independent experiments. [0141] […] The cells were permeabilized with digitonin before fixation. [0142] (M) Quantification of LC3 around IBs (mean±SEM) as shown in (L). […] [0143] […] [0144] (O) Quantification of normalized Q103-HTT (mean±SEM) in (N).
After washing, 2×SDS loading buffer was added to the beads, and immunoblot was performed as described previously.

[5] = biological target: T3, His-T7-LC3C (purified protein); assay: in vitro pull-down of purified proteins, immunoblot

## B1
T7-LC3B
  binding result: binds

B2: HA-CCT2 mVIL (other)
chain: ASLSLAPVNIFKAGADEERAETARLTSFIGAIAIGDLVKSTLGPKGMDKILLSSGRDASLMVTNDGATILKNIGVDNPAAKVLVDMSRVQDDEVGDGTTSVTVLAAELLREAESLIAKKIHPQTIIAGWREATKAAREALLSSAVDHGSDEVKFRQDLMNIAGTTLSSKLLTHHKDHFTKLAVEAVLRLKGSGNLEAIHIIKKLGGSLADSYLDEGFLLDKKIGVNQPKRIENAKILIANTGMDTDKIKIFGSRVRVDSTAKVAEIEHAEKEKMKEKVERILKHGINCFINRQLIYNYPEQLFGAAGVMAIEHADFAGVERLALVTGGEIASTFDHPELVKLGSCKLIEEVMIGEDKLIHFSGVALGEACTIVLRGATQQILDEAERSLHDALCVLAQTVKDSRTVYGGGCSEMLMAHAVTQLANRTPGKEAVAMESYAKALRMLPTIIADNAGYDSADLVAQLRAAHSEGNTTAGLDMREGTIGDMAILGITESFQVKRQVLLSAAEAAEAAARVDNIIKAAPRKRVPDHHPC
notes: also called CCT2 VIL mutated to alanine; not shown: N-terminal HA tag
[1]
  binding result: no binding

B3: HA-CCT2 mVLL (other)
chain: ASLSLAPVNIFKAGADEERAETARLTSFIGAIAIGDLVKSTLGPKGMDKILLSSGRDASLMVTNDGATILKNIGVDNPAAKVLVDMSRVQDDEVGDGTTSVTVLAAELLREAESLIAKKIHPQTIIAGWREATKAAREALLSSAVDHGSDEVKFRQDLMNIAGTTLSSKLLTHHKDHFTKLAVEAVLRLKGSGNLEAIHIIKKLGGSLADSYLDEGFLLDKKIGVNQPKRIENAKILIANTGMDTDKIKIFGSRVRVDSTAKVAEIEHAEKEKMKEKVERILKHGINCFINRQLIYNYPEQLFGAAGVMAIEHADFAGVERLALVTGGEIASTFDHPELVKLGSCKLIEEVMIGEDKLIHFSGVALGEACTIVLRGATQQILDEAERSLHDALCVLAQTVKDSRTVYGGGCSEMLMAHAVTQLANRTPGKEAVAMESYAKALRMLPTIIADNAGYDSADLVAQLRAAHSEGNTTAGLDMREGTIGDMAILGITESFQVKRQAAASAAEAAEVILRVDNIIKAAPRKRVPDHHPC
notes: also called CCT2 VLL mutated to alanine; not shown: N-terminal HA tag
[1]
  binding result: no binding

B4: T7-GABARAP (expressed in cells) (other, UniProt O95166 1-116, looked up)
chain: MKFVYKEEHPFEKRRSEGEKIRKKYPDRVPVIVEKAPKARIGDLDKKKYLVPSDLTVGQFYFLIRKRIHLRAEDALFFFVNNVIPPTSATMGQLYQEHHEEDFFLYIAYSDESVYG
notes: not shown: T7 tag
[2]
  binding result: binds

B5: GFP-FUS P525L (purified, after TEV digestion of MBP-TEV-GFP-FUS P525L) (other, UniProt P35637 1-526, looked up)
chain: MASNDYTQQATQSYGAYPTQPGQGYSQQSSQPYGQQSYSGYSQSTDTSGYGQSSYSSYGQSQNTGYGTQSTPQGYGSTGGYGSSQSSQSSYGQQSSYPGYGQQPAPSSTSGSYGSSSQSSSYGQPQSGSYSQQPSYGGQQQSYGQQQSYNPPQGYGQQNQYNSSSGGGGGGGGGGNYGQDQSSMSSGGGSGGGYGNQDQSGGGGSGGYGQQDRGGRGRGGSGGGGGGGGGGYNRSSGGYEPRGRGGGRGGRGGMGGSDRGGFNKFGGPRDQGSRHDSEQDNSDNNTIFVQGLGENVTIESVADYFKQIGIIKTNKKTGQPMINLYTDRETGKLKGEATVSFDDPPSAKAAIDWFDGKEFSGNPIKVSFATRRADFNRGGGNGRGGRGRGGPMGRGGYGGGGSGGGGRGGFPSGGGGGGGQQRAGDWKCPNPTCENMNFSWRNECNQCKAPKPDGPGGGPGGSHMGGNYGDDRRGGRGGYDRGGYRGRGGDRGGFRGGRGGGDRGGFGPGKMDSRGEHRQDRRERLY
notes: 2 uM protein, as liquid granules (phase separation) or as solid aggregates (shaken at 700 rpm); also called FUS P525L granules; not shown: GFP
[3]
  binding result: binds

B6: CCT2 domain3 peptide 7 mVL(I)L (peptide)
peptide: ILGITESFQVKRQAAASAAEAAEAAARVDN
notes: Synthetic peptide coupled to agarose beads; VLL and VIL replaced by alanines; also called peptide 7 mutant (mVL (I) L)
[4]
  binding result: no binding

B7: GST-HA-CCT2 with VLL and VIL mutated (purified) (other)
chain: ASLSLAPVNIFKAGADEERAETARLTSFIGAIAIGDLVKSTLGPKGMDKILLSSGRDASLMVTNDGATILKNIGVDNPAAKVLVDMSRVQDDEVGDGTTSVTVLAAELLREAESLIAKKIHPQTIIAGWREATKAAREALLSSAVDHGSDEVKFRQDLMNIAGTTLSSKLLTHHKDHFTKLAVEAVLRLKGSGNLEAIHIIKKLGGSLADSYLDEGFLLDKKIGVNQPKRIENAKILIANTGMDTDKIKIFGSRVRVDSTAKVAEIEHAEKEKMKEKVERILKHGINCFINRQLIYNYPEQLFGAAGVMAIEHADFAGVERLALVTGGEIASTFDHPELVKLGSCKLIEEVMIGEDKLIHFSGVALGEACTIVLRGATQQILDEAERSLHDALCVLAQTVKDSRTVYGGGCSEMLMAHAVTQLANRTPGKEAVAMESYAKALRMLPTIIADNAGYDSADLVAQLRAAHSEGNTTAGLDMREGTIGDMAILGITESFQVKRQAAASAAEAAEAAARVDNIIKAAPRKRVPDHHPC
notes: also called GST-CCT2s; CCT2 with mutation of VLL and VIL; not shown: N-terminal GST and HA tags
[5]
  binding result: no binding
